Experimental data from patent publication US20190016816A1.

Target: FcγRIIa (CD32a His131) (UniProt P12318)
Assay: flow cytometry, CHO cells stably expressing CD32a His131, fluorescent anti-human IgG secondary, MFI (mean)

Chain of FcγRIIa (CD32a His131) (P12318 34-317 limits assumed): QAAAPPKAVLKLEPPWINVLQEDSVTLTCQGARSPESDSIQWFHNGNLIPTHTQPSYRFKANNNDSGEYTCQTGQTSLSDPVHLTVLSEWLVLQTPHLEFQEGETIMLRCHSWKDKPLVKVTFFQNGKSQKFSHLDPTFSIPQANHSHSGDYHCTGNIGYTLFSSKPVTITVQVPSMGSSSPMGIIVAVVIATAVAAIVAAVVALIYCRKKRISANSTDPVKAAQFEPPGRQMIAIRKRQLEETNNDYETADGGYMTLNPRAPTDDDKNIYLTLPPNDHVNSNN

control human IgG1 molecule (antibody)
EC50 (read off the curve): 9 nM
